Experimental findings from patent US20050118729A1 (published 2005) are described below.

The target in the assay is T1, α4β1 integrin expressed on Jurkat cells (human, UniProt P13612 34-1032; P05556 21-798).
T1 construct: whole, on cells; Cells labeled with a fluorescent dye (Cyto 82); also called receptor recognizing the CS1 peptide
The assay is described as follows: cell adhesion of labeled Jurkat cells on microarray.

T1 sequence (P13612 34-1032, chain 1 of 2): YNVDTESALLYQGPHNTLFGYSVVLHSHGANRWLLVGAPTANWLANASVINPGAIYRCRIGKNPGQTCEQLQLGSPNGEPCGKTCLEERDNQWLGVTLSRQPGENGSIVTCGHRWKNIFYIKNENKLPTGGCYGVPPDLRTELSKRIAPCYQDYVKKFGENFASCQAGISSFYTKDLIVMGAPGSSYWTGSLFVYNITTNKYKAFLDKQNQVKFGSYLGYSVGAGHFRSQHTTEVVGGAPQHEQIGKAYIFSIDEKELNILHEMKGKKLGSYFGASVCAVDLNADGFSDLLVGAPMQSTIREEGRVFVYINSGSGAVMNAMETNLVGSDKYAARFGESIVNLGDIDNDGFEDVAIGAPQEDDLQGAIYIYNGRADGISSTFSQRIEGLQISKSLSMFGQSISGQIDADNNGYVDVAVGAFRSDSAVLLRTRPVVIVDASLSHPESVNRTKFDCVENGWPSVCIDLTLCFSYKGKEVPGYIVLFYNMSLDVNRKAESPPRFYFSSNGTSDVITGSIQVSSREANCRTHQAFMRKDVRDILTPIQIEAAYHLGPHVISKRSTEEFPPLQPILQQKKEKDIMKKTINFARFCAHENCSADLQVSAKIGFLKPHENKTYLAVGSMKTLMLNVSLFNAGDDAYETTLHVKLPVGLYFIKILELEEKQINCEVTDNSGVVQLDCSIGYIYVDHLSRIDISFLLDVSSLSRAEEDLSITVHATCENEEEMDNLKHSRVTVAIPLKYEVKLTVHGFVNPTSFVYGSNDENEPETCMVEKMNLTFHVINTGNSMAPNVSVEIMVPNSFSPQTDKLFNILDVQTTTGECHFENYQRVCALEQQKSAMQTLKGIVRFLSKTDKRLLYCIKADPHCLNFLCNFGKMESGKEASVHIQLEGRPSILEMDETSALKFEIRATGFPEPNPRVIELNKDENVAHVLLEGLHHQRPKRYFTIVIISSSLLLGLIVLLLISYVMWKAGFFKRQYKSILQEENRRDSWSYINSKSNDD
T1 sequence (P05556 21-798, chain 2 of 2): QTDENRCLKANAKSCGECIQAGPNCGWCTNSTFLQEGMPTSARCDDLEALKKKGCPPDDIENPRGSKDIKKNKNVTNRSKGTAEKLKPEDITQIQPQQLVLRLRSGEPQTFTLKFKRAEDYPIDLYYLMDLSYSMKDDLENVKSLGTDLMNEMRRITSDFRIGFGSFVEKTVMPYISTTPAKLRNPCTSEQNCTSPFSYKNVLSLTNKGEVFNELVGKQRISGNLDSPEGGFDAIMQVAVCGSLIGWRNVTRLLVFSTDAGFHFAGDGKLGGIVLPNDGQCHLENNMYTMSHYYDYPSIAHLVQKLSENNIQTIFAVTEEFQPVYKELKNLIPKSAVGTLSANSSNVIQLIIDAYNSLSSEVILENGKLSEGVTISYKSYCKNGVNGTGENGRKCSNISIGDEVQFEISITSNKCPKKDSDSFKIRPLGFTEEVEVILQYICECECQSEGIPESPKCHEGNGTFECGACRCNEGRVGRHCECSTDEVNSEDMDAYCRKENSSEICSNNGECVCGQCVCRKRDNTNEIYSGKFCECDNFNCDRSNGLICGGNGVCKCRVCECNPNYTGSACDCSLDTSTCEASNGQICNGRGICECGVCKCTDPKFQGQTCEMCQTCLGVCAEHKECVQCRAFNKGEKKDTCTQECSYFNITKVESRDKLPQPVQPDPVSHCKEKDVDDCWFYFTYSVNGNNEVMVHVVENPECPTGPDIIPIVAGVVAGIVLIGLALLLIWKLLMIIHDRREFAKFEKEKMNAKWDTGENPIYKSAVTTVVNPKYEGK
Experimental: Jurkat T-cells, a human leukemia line, were grown under the appropriate growing conditions. Shortly before the adherence assay, cells were washed with 5 mM EDTA in Tris-buffered saline (TBS, 10 mM Tris-HCl, pH 7.4, 150 mM NaCl) and then incubated with Cyto 82 (2 μM final concentration) for 30 min under continuous agitation. Labeled cells were washed twice with the same buffer and applied directly on the fabricated microarray slides.
The model of interaction chosen for this purpose was α4β1-CS1-interaction model. α4β1 is an integrin expressed by several types of adherent cells and can mediate cell matrix contact trough the known ligand fibronectin. […] The slides were washed extensively and the interaction was scanned by the microarray scanner (FIG. 10).

B1: recombinant protein comprising the cellulose binding region of SEQ ID NO 4 (cellulose binding recombinant protein of Example 1) (other)
chain: NATPTKGATPTNTATPTKSATATPTRPSVPTNTPTNTPANTPVSGNLKVEFYNSNPSDTTNSINPQFKVTNTGSSAIDLSKLTLRYYYTVDGQKDQTFWCDHAAIIGSNGSYNGITSNVKGTFVKMSSSTNNADTYLEISFTGGTLEPGAHVQIQGRFAKNDWSNYTQSNDYSFKSASQFVEWDQVTAYLNGVLVWGKEPGGSVVPSTQPVTTPPATTKPPATTKPPATTIPPSDDPNA
As to B1, the binding result is recorded as “no binding (tested: highest array concentration)”.
